Assays:
hG6PD promoter = experiment: NHR-promoter luciferase screen, hG6PD promoter; format: cell-based, human; conditions: for Luc. act., normalized to lacZ / Normalized Luc. act., normalized to control: G6PD promoter reporter, co-transfected HR, without or with its ligand; for Normalized Luc. act., normalized to control: relative to control; for luciferase activity normalized to lacZ activity and to a control, hG6PD: hG6PD promoter-luciferase, CV-1 cells, NHR +/- ligand, control = 1.00
Method: (§1) The use, feasibility, and reproducibility of the functional NHR-promoter screen in a 48-well format have been tested validated. Briefly, there were co-expressed 50 ng of each NHR/NHR homodimer or NHR/RXR heterodimer with 100 ng promoter/luciferase construct and 50 ng of LacZ (as a control for transfection efficiency) in CV-1 cells using Fugene HD (Roche) as a transfection reagent (alternatively or additionally, a CMV-YFP construct can be used as a transfection control). Each of the nuclear hormone receptors that were used in these experiments was cloned into a pcDNA3.1 vector and comprised a C-terminally linked V5H6 tag. Twenty-four hours after transfection, appropriate ligands were added, where applicable, (see Table 5 for various ligands and concentrations and after 48 hrs, samples were assayed for luciferase and LacZ activity. To measure for luciferase activity 15 ul of sample was added to 30 ul of luciferase buffer (20 mM tricine, 1.07 mM MgCarbonate, 2.67 mM MgSulfate, 0.1 mM Naz-EDTA, 5 mM DTT, 5 mM ATP, 0.15 mg/ml CoA, 0.5 mM Luciferin), mixed briefly, and run in a Perkin Elmer Victor 5 luminometer. Thus, the functional NHR-promoter screen was used to observe the transcriptional activity of 29 promoters from various physiological pathways including inflammation, lipid and sugar metabolism, cholesterol transport, xenobiotic metabolism, and circadian rhythm.
(§2) The promoters that facilitate transcription of the indicated gene products that were tested using the protocols described herein are listed in the first row of the table. The nuclear hormone receptors and, where applicable, ligands that were assayed for their transcriptional effects on the promoters are listed in the first column of the table. The data represent the luciferase activity of each sample normalized to both the lacZ activity of that sample and to a control, e.g., no NHR or ligand, as customary in the art. As described previously, these normalizations allow the transcriptional activity of each reporter cell to be compared to other samples.
(§3) Tables 7-40 show the transcriptional effects of the hormone receptors, and, where applicable, ligands (orphan receptors are screened without ligand), on each individual promoter. […] The control data of each table are shown in their last rows.

hPOMC promoter = experiment: NHR-promoter luciferase screen, hPOMC promoter; format: cell-based, human; conditions: for Luc. act., normalized to lacZ / Normalized Luc. act., normalized to control: hPOMC promoter, HR/ligand component; for hPOMC promoter reporter activity: transcription factor +/- ligand, control = 1.00
Method: as §1, §2, §3

mPOMC promoter = experiment: NHR-promoter luciferase screen, mPOMC promoter; format: cell-based, mouse; conditions: for Results of assays of transcription factor (+/- ligand) with mPOMC: Table 6d, luciferase activity relative to control (control = 1.00); for Luc. act., normalized to lacZ / Normalized Luc. act., normalized to control: mPOMC promoter, HR component with or without ligand; for Normalized Luc. act., normalized to control: relative to control
Method: as §1, §2, §3

RevErba promoter = experiment: NHR-promoter luciferase screen, RevErba (RVRa) promoter; format: cell-based; set-up: key to mRevErba promoter reporter activity / Normalized Luc. act., normalized to control: luciferase activity normalized to lacZ and to control (no NHR/ligand); conditions: for Luc. act., normalized to lacZ / Normalized Luc. act., normalized to control: HR component without or with ligand; for normalized Luc. act. on a logarithmic scale (column without head, Table 33): log10 of activity normalized to control; for mRevErba promoter reporter activity: transcription factor +/- ligand, control = 1.00
Method: Briefly, there were co-expressed 50 ng of each NHR/NHR homodimer or NHR/RXR heterodimer with 100 ng promoter/luciferase construct and 50 ng of LacZ (as a control for transfection efficiency) in CV-1 cells using Fugene HD (Roche) as a transfection reagent (alternatively or additionally, a CMV-YFP construct can be used as a transfection control). Each of the nuclear hormone receptors that were used in these experiments was cloned into a pcDNA3.1 vector and comprised a C-terminally linked V5H6 tag.
as §2
The control data of each table are shown in their last rows.

hPPARg1 promoter = experiment: NHR-promoter luciferase screen, hPPARg1 promoter; format: cell-based, human; conditions: for Luc. act., normalized to lacZ / Normalized Luc. act., normalized to control: PPARG1 promoter, hormone receptor with or without its ligand; for Normalized Luc. act., normalized to control: relative to control; for Results of assays of transcription factor (+/- ligand) with hPPARg1: Table 6d, luciferase activity relative to control (control = 1.00)
Method: as §1, §2, §3

B1: RARb: Retinoic acid receptor β (NR1B2), nuclear hormone receptor cDNA driver (protein, UniProt P10826 1-455, looked up)
Retinoic acid receptor beta: MTTSGHACPVPAVNGHMTHYPATPYPLLFPPVIGGLSLPPLHGLHGHPPPSGCSTPSPATIETQSTSSEELVPSPPSPLPPPRVYKPCFVCQDKSSGYHYGVSACEGCKGFFRRSIQKNMIYTCHRDKNCVINKVTRNRCQYCRLQKCFEVGMSKESVRNDRNKKKKETSKQECTESYEMTAELDDLTEKIRKAHQETFPSLCQLGKYTTNSSADHRVRLDLGLWDKFSELATKCIIKIVEFAKRLPGFTGLTIADQITLLKAACLDILILRICTRYTPEQDTMTFSDGLTLNRTQMHNAGFGPLTDLVFTFANQLLPLEMDDTETGLLSAICLICGDRQDLEEPTKVDKLQEPLLEALKIYIRKRRPSKPHMFPKILMKITDLRSISAKGAERVITLKMEIPGSMPPLIQEMLENSEGHEPLTPSSSGNTAEHSPSISPSSVENSGVSQSPLVQ
hG6PD promoter
  Luc. act., normalized to lacZ: 56.6
  Normalized Luc. act., normalized to control: 1.5
  luciferase activity normalized to lacZ activity and to a control, hG6PD: 1.52
hPOMC promoter
  Luc. act., normalized to lacZ: 4.3
  Normalized Luc. act., normalized to control: 1.0
  hPOMC promoter reporter activity: 1.00
mPOMC promoter
  Results of assays of transcription factor (+/- ligand) with mPOMC: 1.85
  Luc. act., normalized to lacZ: 127.4
  Normalized Luc. act., normalized to control: 1.8
RevErba promoter; RVRa promoter
  Luc. act., normalized to lacZ: 45.6
  Normalized Luc. act., normalized to control: 1.6
  normalized Luc. act. on a logarithmic scale (column without head, Table 33): 0.21
RevErba promoter
  mRevErba promoter reporter activity: 1.63
hPPARg1 promoter
  Luc. act., normalized to lacZ: 100.6
  Normalized Luc. act., normalized to control: 1.5
  Results of assays of transcription factor (+/- ligand) with hPPARg1: 1.46

B2: RVRa: Rev-Erb α (NR1D1), cDNA driver (protein, UniProt P20393 1-614, looked up)
Nuclear receptor subfamily 1 …: MTTLDSNNNTGGVITYIGSSGSSPSRTSPESLYSDNSNGSFQSLTQGCPTYFPPSPTGSLTQDPARSFGSIPPSLSDDGSPSSSSSSSSSSSSFYNGSPPGSLQVAMEDSSRVSPSKSTSNITKLNGMVLLCKVCGDVASGFHYGVHACEGCKGFFRRSIQQNIQYKRCLKNENCSIVRINRNRCQQCRFKKCLSVGMSRDAVRFGRIPKREKQRMLAEMQSAMNLANNQLSSQCPLETSPTQHPTPGPMGPSPPPAPVPSPLVGFSQFPQQLTPPRSPSPEPTVEDVISQVARAHREIFTYAHDKLGSSPGNFNANHASGSPPATTPHRWENQGCPPAPNDNNTLAAQRHNEALNGLRQAPSSYPPTWPPGPAHHSCHQSNSNGHRLCPTHVYAAPEGKAPANSPRQGNSKNVLLACPMNMYPHGRSGRTVQEIWEDFSMSFTPAVREVVEFAKHIPGFRDLSQHDQVTLLKAGTFEVLMVRFASLFNVKDQTVMFLSRTTYSLQELGAMGMGDLLSAMFDFSEKLNSLALTEEELGLFTAVVLVSADRSGMENSASVEQLQETLLRALRALVLKNRPLETSRFTKLLLKLPDLRTLNNMHSEKLLSFRVDAQ
hG6PD promoter
  Luc. act., normalized to lacZ: 45.9
  Normalized Luc. act., normalized to control: 1.2
  luciferase activity normalized to lacZ activity and to a control, hG6PD: 1.23
hPOMC promoter
  Luc. act., normalized to lacZ: 2.3
  Normalized Luc. act., normalized to control: 0.5
  hPOMC promoter reporter activity: 0.53
mPOMC promoter
  Results of assays of transcription factor (+/- ligand) with mPOMC: 1.13
  Luc. act., normalized to lacZ: 77.9
  Normalized Luc. act., normalized to control: 1.1
RevErba promoter; RVRa promoter
  Luc. act., normalized to lacZ: 9.76
  Normalized Luc. act., normalized to control: 0.3
  normalized Luc. act. on a logarithmic scale (column without head, Table 33): −0.46
RevErba promoter; RVRa promoter, given only where activity is below control
  negative reciprocal of normalized Luc. act. (fold repression; Table 33): −2.865
RevErba promoter
  mRevErba promoter reporter activity: 0.35
hPPARg1 promoter
  Luc. act., normalized to lacZ: 45.9
  Normalized Luc. act., normalized to control: 0.7
  Results of assays of transcription factor (+/- ligand) with hPPARg1: 0.67
